The text below walks through data of patent US20190330349A1.

Numbering of substitutions follows the chain as printed.

For this assay, the target named is human VISTA (V-domain Ig Suppressor of T cell Activation) (human) (UniProt Q9H7M9). The experiment in a line: Table 1 column 'Kd, M'; method not stated.

B1: VSTB63 (antibody, from a related filing, V domains shown)
VH: QVQLQESGPGLVKPSETLSLTCAVSGFSITSDFAWNWIRQPPGKGLEWIGYITYSGFTNYNPSLESRVTISVDTSKNQFSLKLSSVTAADTAVYYCARQEYGNYVWYFDVWGQGTLVTVSS
VL: DIVMTQTPLSLSVTPGQPASISCRASESVEYYGTSLLQWYLQKPGQPPQLLIYAASNVESGVPDRFSGSGSGTDFTLKISRVEAEDVGVYYCQQSRKVPWTFGQGTKLEIK
Regarding B1, the Kd (as a rule, the free concentration of one partner at which half of the binding sites on the other are occupied at equilibrium, for simple one-to-one binding) was 830 pM.

B2: VSTB54 (antibody, from a related filing, V domains shown)
VH: QVQLVQSGAEVKKPGASVKVSCKASGYNIKDTYMHWVRQAPGQGLEWMGRIDPTHGYVIYDPKFQGRVTMTRDTSTSTVYMELSSLRSEDTAVYYCARDRFDPYWFLDVWGQGTLVTVSS
VL: B1 VL with L37M, P47S, A54D, S56F
As to B2, the Kd came to 25.3 pM.
